Legend:
[1] = molecular target: nesprin-1α fragment SLR2-7ΔAD (SLR2-7 with the adaptive domain deleted) (human); assay: dynamic light scattering
[2] = molecular target: nesprin-1α fragment SLR2-7 (full-length nesprin-1α minus the transmembrane domain) (human); assay: dynamic light scattering

Row | stoichiometry N [1] | stoichiometry N [2] | Substance
1 | 2 |  | nesprin-1α fragment SLR2-7ΔAD (SLR2-7 with the adaptive domain deleted) (domain or fragment)
2 |  | 2 | nesprin-1α fragment SLR2-7 (full-length nesprin-1α minus the transmembrane domain) (domain or fragment)

From article PMC2885798
